Source: patent publication US7030099B2, “Tumor specific promoters of the midkine gene that allow for selective expression in P53-inactivated cells” (Research Corporation Technologies, Inc., priority 2000, dated 2006)

Key:
[1] = system: human malignant melanoma A875, human lung cancer cells QG-56; test: Luciferase assay of c-erbB-2 promoter activity, non-breast tumor cells; format: cell-based; settings: human malignant melanoma cells and human lung cancer cells; FIG. 7C
Procedure: (§1) With the transcription initiation site of the c-erbB-2 gene as +1, DNA that corresponded to a genomic region (p533) from −435 to +38 and that had the sequence set forth in SEQ ID NO: 7 was amplified by the PCR method, and then the DNA fragment was integrated into the pGEM-TEasy (manufactured by Promega), and the sequences of the PCR product was determined. Thus, after inserting this PCR product into the SmaI site of pGL2-Basic (manufactured by Promega), it was cleaved with BlnI/SmaI, PstI/SmaI, and BssHII/SmaI using the restriction enzyme sites present on the c-erbB-2 genomic gene to construct plasmids in which the genomic regions of c-erbB-2, p344 (−306/+38) (DNA having the base sequence set forth in SEQ ID NO: 8), p251 (−213/+38) (DNA having the base sequence set forth in SEQ ID NO: 9) and p124 (−86/+38) (DNA having the base sequence set forth in SEQ ID NO: 10) are localized upstream of the Firefly luciferase gene, respectively. Using the plasmid pGL2-Control (manufactured by Promega) having the promoter of SV40 virus and the plasmid pGL2-Basic (manufactured by Promega) containing no promoters, gene introduction was performed in human breast cancer cells OCUBM, MCF7, BT549, normal human fibroblasts HEF, MRC-5, human malignant melanoma A875, and human lung cancer cells QG-56, all of which were cultured in DMEM (Sigma) supplemented with 10% bovine fetal serum. Firstly, after 10 μg each of these plasmids and lipofectin (Life Technologies) were mixed, it was allowed to stand at room temperature for 30 minutes to form a complex of DNA and lipid. Then the complex, after removing the bovine fetal serum therefrom, was contacted with the cells. Eight hours later culture medium supplemented with bovine fetal serum was added. After 48 hours-culture, the cells were disrupted using the Dual-Luciferase Reporter Assay System (manufactured by Promega), and the Firefly luciferase activity therein was determined using the reagents in the same kit. In order to normalize the efficiency of gene introduction, 1 μg of pRL-TK plasmid (manufactured by Promega) was included in each gene-introduced group, and the Renilla luciferase activity by the TK promoter was determined, based on which the Firefly luciferase activity was corrected.

[2] = system: human breast cancer cells OCUBM, MCF7, BT549; test: Luciferase assay of c-erbB-2 promoter activity, breast cancer cells; format: cell-based; settings: FIG. 7A
Procedure: as §1, with “Then the complex, after removing the bovine fetal serum therefrom, was contacted with the cells. Eight hours later culture medium supplemented with bovine fetal serum was added.” left out

[3] = system: normal human fibroblasts HEF, MRC-5; test: Luciferase assay of c-erbB-2 promoter activity, normal fibroblasts; format: cell-based; settings: FIG. 7B
Procedure: as §1

breast cancer cells MCF7 = test: In vitro sensitivity to GCV of promoter-TK gene-introduced cells; format: cell-based, human; settings: GCV seven days, FIG. 8A
Procedure: (§2) In order to examine the cytotoxic effects using the p251 promoter, a suicide gene HSV-TK was ligated downstream of this promoter region (pro251-TK), this plasmid was expressed in cells, and a prodrug GCV was added to the culture of the gene-introduced cells. The measurement of cytotoxic effects by this system was carried out according to the method described in Moolten, Fla. Cancer Gene Ther., 1:279–287, 1994. Firstly, the cytomegalovirus (CMV) promoter of pcDNA3 (manufactured by Invitrogen) was removed using NruI and HindIII sites, into which the p251 promoter was inserted and then using the EcoRV site, the HSV-TK gene excised from pMK (Brinster, R L et al., Cell, 27:223–231, 1981) with BglI and EcoRI was inserted (pro251-TK). As a control, a pcDN3-derived plasmid (pro251) that contains no HSV-TK gene but has integrated the p251 promoter, and a pcDNA3-derived plasmid (CMV-TK) that has the HSV-TK gene and permits the expression of the HSV-TK gene were also used. Each of the plasmids ([…], pro251-TK, CMV-TK) was introduced using lipofectin into the breast cancer cells MCF7 or non-breast cancer cells A875. In order to utilize the expression of the Neo gene contained in pcDNA3 as a drug resistant marker, the transfected cells were cultured with 400 μg/ml of G418 (manufactured by Life Technologies) for ten days to establish the cells that express a respective gene. […]

[4] = system: non-breast cancer cells A875; test: as above; format: cell-based, human; settings: GCV seven days, FIG. 8B
Procedure: as §2

B1: p251: c-erbB-2 genomic region −213/+38, SEQ ID NO: 9 (nucleic acid, listed as Homo sapiens)
DNA: GGCAACCCAGGCGTCCCGGCGCTAGGAGGGACGACCCAGGCCTGCGCGAAGAGAGGGAGAAAGTGAAGCTGGGAGTTGCCGACTCCCAGACTTCGTTGGAATGCAGTTGGAGGGGGCGAGCTGGGAGCGCGCTTGCTCCCAATCACAGGAGAAGGAGGAGGTGGAGGAGGAGGGCTGCTTGAGGAAGTATAAGAATGAAGTTGTGAAGCTGAGATTCCCCTCCATTGGGACCGGAGAAACCAGGGGAGCCC
transcription activity compared with SV40 promoter [1]: lower than the SV40 promoter | transcription activity compared with p533 promoter [1]: about the same as that of p533 promoter | promoter activity compared with promoter of SV40 virus [2]: more potent than the promoter of SV40 virus | transcription activity compared with other c-erbB-2 promoter fragments [2]: higher transcription activity than the p533 promoter | promoter activity compared with SV40 promoter [3]: lower than the SV40 promoter | transcription activity compared with other c-erbB-2 promoter fragments [3]: low compared with the p344 promoter and with the p533 promoter | sensitivity to GCV of cells expressing HSV-TK under the promoter (breast cancer cells MCF7): greater sensitivity to GCV than the parent strain | sensitivity to GCV of cells expressing HSV-TK under the promoter [4]: very weak compared with of the parent strain
